Like-named read-outs stand apart in the source and are kept apart here.
Experiments:
human Claudin18.2 [1] = molecular target: T1, human Claudin18.2 (human, UniProt P56856-2 1-261); assay: cell-based ELISA on NUGC4 cells (endogenous human Claudin18.2)
T1 construct: whole, on cells; also called CLDN18.2; HEK293T-Claudin18.2 (human)

human Claudin18.2 [2] = molecular target: T1, human Claudin18.2; assay: FACS on HEK293T-Claudin18.2 (human) cells
Method: The affinity of the anti-human Claudin18.2 humanized antibodies was detected by flow cytometry. The experimental procedures were as follows: The adherent cultured HEK293T-Claudin18.2 (human), NUGC4-Claudin18.2 (human) and NUGC4 cells were digested, collected by centrifugation, and washed three times with pre-cooled PBS. The cells were resuspended in 1% BSA (in PBS) and added to a 96-well pointed bottom plate at 3×10⁵ cells/well, with a volume of 50 μL per well. Each test antibody was diluted with 1% BSA (in PBS) (starting at 100 μg/mL, diluted in a 3-fold gradient, for 10 concentration points). The test antibody subjected to gradient dilution was added to the cells at 50 μL/well, and the mixture was well mixed and incubated at 4° C. for 1 h. The cells were collected by centrifugation, washed three times with pre-cooled PBS, and resuspended in 50 μL of 1% BSA (in PBS). 1 μL of a fluorescent secondary antibody (Biolegend-410712) was added to each well, and the mixture was well mixed and incubated at 4° C. for 0.5 h. The cells were collected by centrifugation, washed three times with pre-cooled PBS, resuspended in 200 μL of PBS, and assayed on a machine.

human Claudin18.1 [3] = molecular target: T2, human Claudin18.1 (human, UniProt P56856 1-261); assay: FACS on HEK293T-Claudin18.1 (human) cells, antibody 50 µg/mL
T2 construct: whole, on cells; also called CLDN18.1; HEK293T-Claudin18.1 (human)
Method: The specificity of the anti-human Claudin18.2 humanized monoclonal antibodies was determined by flow cytometry (FACS). The experimental procedures were as follows: HEK293T-Claudin18.1 (human) cells were digested, collected by centrifugation, washed three times with pre-cooled PBS, resuspended in 1% BSA (in PBS), and added to a 96-well pointed bottom plate at 3×10⁵ cells/well. Each test antibody with a final concentration of 50 μg/mL was added, and the mixture was incubated at 4° C. for 1 h. The cells were washed three times with pre-cooled PBS, and then 1 μL of a fluorescent secondary antibody (APC: Biolegend-410712 or PE: BioLegend-410708) was added to each well. The mixture was incubated at 4° C. for 0.5 h, and the cells were washed three times with pre-cooled PBS, then resuspended, and assayed on a flow cytometer. For reference, anti-human Claudin18.1 positive control antibodies (positive control antibody-1 and positive control antibody-2) were included in the experiment.

human Claudin18.2 [4] = molecular target: T1, human Claudin18.2; assay: cell-based ELISA on HEK293T-Claudin18.2 (human) cells
Method: The affinity of the anti-human Claudin18.2 murine monoclonal antibodies was evaluated by cell-based ELISA. The experimental procedures were as follows: The day before the experiment, HEK293T-Claudin18.2 (human) cells were plated in a 96-well plate at 5×10⁴ cells/well. On the day of the experiment, the supernatant was removed, the cells in each well were washed once with 300 μL of PBS, and 100 μL of 4% paraformaldehyde was added to each well for fixation at room temperature for 20 min. Paraformaldehyde was then removed, and the cells in each well were washed twice with 300 μL of PBS. 100 μL of 2% BSA (in PBS) was added to each well, and the mixture was blocked at 37° C. for 2 h. After removing the blocking solution, each antibody subjected to gradient dilution (diluted with 2% BSA (in PBS), starting at […], in a 3-fold gradient, for a total of 11 concentration points) was added to the plate at 100 μL/well, and the mixture was incubated at 37° C. for 2 h. The supernatant was removed, and the cells in each well were washed three times with 300 μL of PBST. […] The reaction was stopped by adding 50 μL of 2 N HCl to each well, and OD_{450 nm} values were read on a microplate reader (manufacturer: MD, model: SpectraMax). […]
The affinity of the anti-human Claudin18.2 humanized monoclonal antibodies was determined by cell-based ELISA. […]

human Claudin18.2 [5] = molecular target: T1, human Claudin18.2; assay: cell-based or functional assay
human Claudin18.2 [6] = molecular target: T1, human Claudin18.2; assay: cell-based ELISA on L929-Claudin18.2 (human) cells
human Claudin18.2 [7] = molecular target: T1, human Claudin18.2; assay: cell-based ELISA (OD450) on NUGC4 cells (endogenous human Claudin18.2)
human Claudin18.2 [8] = molecular target: T1, human Claudin18.2; assay: cell-based ELISA on fixed HEK293T-Claudin18.2 (human) cells
Method: The affinity of the anti-human Claudin18.2 murine monoclonal antibodies was evaluated by cell-based ELISA. The experimental procedures were as follows: The day before the experiment, HEK293T-Claudin18.2 (human) cells were plated in a 96-well plate at 5×10⁴ cells/well. On the day of the experiment, the supernatant was removed, the cells in each well were washed once with 300 μL of PBS, and 100 μL of 4% paraformaldehyde was added to each well for fixation at room temperature for 20 min. Paraformaldehyde was then removed, and the cells in each well were washed twice with 300 μL of PBS. 100 μL of 2% BSA (in PBS) was added to each well, and the mixture was blocked at 37° C. for 2 h. After removing the blocking solution, each antibody subjected to gradient dilution (diluted with 2% BSA (in PBS), starting at […], in a 3-fold gradient, for a total of 11 concentration points) was added to the plate at 100 μL/well, and the mixture was incubated at 37° C. for 2 h. The supernatant was removed, and the cells in each well were washed three times with 300 μL of PBST. 100 μL of an anti-mouse IgG HRP secondary antibody (Jackson, cat #115-035-003) in 2% BSA was added to each well, and the mixture was incubated at 37° C. for 1 h. The secondary antibody was then removed, and the cells in each well were washed five times with 300 μL of PBST, followed by the addition of 100 μL of a TMB substrate (Huzhou InnoReagents Co., Ltd.) per well for color development for 5-20 min. The reaction was stopped by adding 50 μL of 2 N HCl to each well, and OD_{450 nm} values were read on a microplate reader (manufacturer: MD, model: SpectraMax). The values obtained were plotted by GraphPad Prism to calculate the EC₅₀ value.

human Claudin18.1 [9] = molecular target: T2, human Claudin18.1; assay: FACS on HEK293T-Claudin18.1 (human) cells
human Claudin18.1 [10] = molecular target: T2, human Claudin18.1; assay: FACS on HEK293T-Claudin18.1 (human) cells, antibody 50 µg/mL; remark: listed apart in the source
Method: The specificity of the anti-human Claudin18.2 murine monoclonal antibodies was evaluated by flow cytometry (FACS). The experimental procedures were as follows: The adherent cultured HEK293T-Claudin18.1 (human) cells were digested, collected by centrifugation, and washed three times with pre-cooled PBS. The cells were resuspended in 1% BSA (in PBS) and added to a 96-well pointed bottom plate at 3×10⁵ cells/well, with a volume of 50 μL per well. Each test antibody was diluted to 100 μg/mL with […] (in PBS) and added to the cells at 50 μL/well to achieve a final antibody concentration of 50 μg/mL. The mixture was well mixed and incubated at 4° C. for 1 h. The cells were collected by centrifugation, washed three times with pre-cooled PBS, and resuspended in 50 μL of 1% BSA (in PBS). 1 μL of a fluorescent secondary antibody (Biolegend, cat #405308) was added to each well, and the mixture was well mixed and incubated at 4° C. for 0.5 h. The cells were collected by centrifugation, washed three times with pre-cooled PBS, resuspended in 200 μL of PBS, and assayed on a machine (flow cytometer model: Sony-LE-SA3800GA). The APC fluorescence signal value was obtained, and the gate was set using an isotype control antibody as a negative control to obtain the percentage of positively stained cells (positive rate (0%)).

Row | Binder | EC50 (human Claudin18.2 [8]) [ng/mL] | binding result (human Claudin18.1 [9]) | Mean APC fluorescence signal value (human Claudin18.1 [10]) | Positive rate (%) (human Claudin18.1 [10]) | other results
1 | 25C7A5-HZ2 (antibody, human IgG1, kappa, Humanized IgG1/kappa) heavy: not shown light: EIVLTQSPATLSLSPGERATLSCKASENVKTYVSWYQQKPGQSPRLLIYEASNRYTGVPARFSGSGSATDFTLTISSLEPEDFAVYFCGQTYSFPPTFGQGTKVEIKRTVAAPSVFIFPPSDEQLKSGTASVVCLLNNFYPREAKVQWKVDNALQSGNSQESVTEQDSKDSTYSLSSTLTLSKADYEKHKVYACEVTHQGLSSPVTKSFNRGEC |  |  |  |  | EC50 (human Claudin18.2 [1]): 0.122 µg/mL; EC50 (human Claudin18.2 [2]): 0.293 µg/mL; Maximum signal value (human Claudin18.2 [2]): 119000; Positive rate (%) (human Claudin18.1 [3]): 0.55%; EC50 (human Claudin18.2 [4]): 0.0112 µg/mL; ADCC activity EC50 (Jurkat-NFAT-CD16a luciferase reporter, HEK293T-Claudin18.2 (human) target cells) (human Claudin18.2 [5]): 48.8 ng/mL; CDC activity EC50 (guinea pig serum killing, CCK8, HEK293T-Claudin18.2 (human) cells) (human Claudin18.2 [5]): 3280 ng/mL; EC50 (human Claudin18.2 [6]): 0.0148 µg/mL; Maximum signal value (human Claudin18.2 [7]): 0.313
2 | 2D3A11 (antibody, V domains shown, Murine monoclonal antibody purified from hybridoma supernatant) VH: EVQLQQSGPELVKPGASVRMSCKASGYTFTSYVVHWVKQKPGQGLEWIGYINPYNADSKYNERFKGKATLTSDKSSNSAYMELSSLTSEDSAVYYCSRSYYGNSFDVWGAGTTVTVSS VL: DIVMTQSPSSLTVTTGEKVTMSCKSSQSLLNSGNQKNYLTWYQQKPGQSPKLLFFWASTRQSGVPDRFTGSGSGTYFTLTISSVQAEDLAVYYCQNDYYFPFTFGTGTKLEIK | 8.14 | no binding (tested: 50 µg/mL) | 134 | 0.25 | 
3 | 25C7A5 (antibody, V domains shown, Murine monoclonal antibody purified from hybridoma supernatant) VH: EVQLQQPGAELVKPGTSVKLSCKASGYTFTNYWLHWVRQRPGQGLEWIGMMHPISGSSNNNERFKSKATLTVDKSSTTAYMQLSRMTSEDSAVYYCARGLLSAMDYWGQGTSVTVSS VL: CIVLTQSPKSMSMSVGERVTLSCKASENVKTYVSWYQQRPEQSPKLLIYEASNRYTGVPDRFTGSGSATVFTLTISSVQTEDLANYFCGQTYSFPPTFGSGTKLEIK | 10.5 | no binding (tested: 50 µg/mL) | 123 | 0.87 | 
4 | 40G11H2 (antibody, V domains shown, Murine monoclonal antibody) VH: EVQLQQSGAELARPGASVKLSCKASGYTFTSYGIRWVKQRTGQGLEWIGEIYPRGGNTYYDEKFKGKATLTADKSSSTAYMGLRSLTSEDSAVYFCARADYGNSFAYWGQGTLVTVSA VL: DIVMTQSPSSLTVTAREKVTMSCKSSQSLLNSGNQKNYLTWYHQKPGQPPKLLIYWASTRESGVPDRFTGSGSGTDFTLTISSVQAEDLAVYFCQNAYFYPFTFGTGTKLEIK | 7.38 | no binding (tested: 50 µg/mL) | 160 | 0.98 | 
5 | 8H11A10 (antibody, V domains shown, Murine monoclonal antibody) VH: QVQLKESGPVLVAPSQSLSITCTVSGFSLTNYGVHWVRQPPGKGLEWLGVIWSGGRTNYNSALMSRLSISKDNSKSQVFLKMNSLQTDDTAMYYCAKRDGIYGDYWGQGTSVTVSS VL: DIVETQSPSSLTVTAGEKVTMSCKSSQSLLNSGNQKNYLTWYQQKPGQSPKLLIYWASTRESGVPDRFTGSGFGTDFTLTISSVQAEDLAVYYCQNDYIYPLTFGAGTKLELK | 12.3 | no binding (tested: 50 µg/mL) | 175 | 1.21 | 
6 | 23F2F2 (antibody, V domains shown, Murine monoclonal antibody purified from hybridoma supernatant) VH: QVQLKESGGGLVQPGGSMKLSCAASGFTFSDAWMNWVRQSPEKGLEWVAEIRNKADYHATHYVESVTGRFTISRDDSKSSVYLQMNRLRAEDTGIYYCTRNYGSRFDYWGQGTTLTVSS VL: DIVETQSPSSLTVTAGEKVTMSCKSSQSLLNSGNQRNYLTWYQQKPGHPPKLLIYWASTRESGVPDRFTGSGSGTDFTLTVTSVQAEDLAVYYCQNDYFYPLAFGTGTKLELK | 6.02 | no binding (tested: 50 µg/mL) | 222 | 2.16 | 
7 | 1A6G10 (antibody, V domains shown, Murine monoclonal antibody purified from hybridoma supernatant; also called 1A6G11) VH: QVQLKESGGGLVKPGGSLKLSCAASGFTFSSYAMSWVRQTPEKRLEWVAAIHSNGGSTYNSDTMRDRFTISRDHAKNTLYLQMSSLRSEDTALYYCGRQSFGNALDYWGQGTSVTVSS VL: DIQMTQSPSSLTVTAGEKVTLTCKSSQSLLNSGNQKNYLTWYQQKPGQPPKLLIYWASTRESGVPDRFTGSGSGTFFTLTISSVQAEDLAVYFCQNDYVYPFTFGAGTQLELK | 5.02 | no binding (tested: 50 µg/mL) | 111 | 0.16 | 
8 | 32F7A6 (antibody, V domains shown, Murine monoclonal antibody purified from hybridoma supernatant) VH: QIQLVQSGPELRKPGETVKISCKASGYTFTAYTMGWVKQAPGKGLEWMAWINTYSGVPTYAADFKGRFAFSLETSASTAYLLINNLKNEDTATYFCARGVRGNSMDYWGQGTSVTVSS VL: DIVETQSPSSLTVTVGERVTLSCKSSQSLLNSGNQRNYLTWSQQKPGQPPKLLIYWASTRESGVPNRFTGGGSGTYFTLTISSVQVEDLAVYYCQNTYSFPFTFGTGTKLEIK | 2.4 |  | 411 | 0 | 

Source: US20260201030A1 (EVOPOINT BIOSCIENCES, published 2026)
